# Laboratory results reported in paper PMC9482650, “Quantitative fragmentomics allow affinity mapping of interactomes” (Nature Communications, 2022).
# Positions count from the first letter of the chain named.
# T1: SNTA1, Q13424
# T1 sequence (Q13424 82-180, limits assumed, looked up): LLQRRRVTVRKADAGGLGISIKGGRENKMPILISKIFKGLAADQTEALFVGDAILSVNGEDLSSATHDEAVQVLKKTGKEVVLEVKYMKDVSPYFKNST
# T2: SNTG1, Q9NSN8
# T2 sequence (Q9NSN8 52-150, limits assumed, looked up): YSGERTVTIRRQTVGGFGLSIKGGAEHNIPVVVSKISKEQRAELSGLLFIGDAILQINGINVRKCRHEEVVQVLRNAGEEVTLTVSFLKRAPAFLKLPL
# T3: DLG3_2, Q92796
# T3 sequence (Q92796 221-321, limits assumed, looked up): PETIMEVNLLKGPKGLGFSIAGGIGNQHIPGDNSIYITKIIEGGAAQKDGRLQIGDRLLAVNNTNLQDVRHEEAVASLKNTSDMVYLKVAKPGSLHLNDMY
# T4: APBA2_1, Q99767
# T4 sequence (Q99767 563-664, limits assumed, looked up): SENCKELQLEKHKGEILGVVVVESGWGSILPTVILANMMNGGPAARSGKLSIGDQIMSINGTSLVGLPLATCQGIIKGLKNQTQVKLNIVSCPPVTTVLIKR
# T5: SNTG2, Q9NY99
# T5 sequence (Q9NY99 68-166, limits assumed, looked up): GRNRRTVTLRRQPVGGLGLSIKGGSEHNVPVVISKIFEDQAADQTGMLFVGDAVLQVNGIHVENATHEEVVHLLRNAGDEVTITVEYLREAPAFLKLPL
# T6: LIN7B, Q9HAP6
# T6 sequence (Q9HAP6 88-185, limits assumed, looked up): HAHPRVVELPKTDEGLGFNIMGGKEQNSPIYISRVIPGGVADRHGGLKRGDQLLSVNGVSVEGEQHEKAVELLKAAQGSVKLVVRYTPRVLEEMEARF
# T7: TIAM2, Q8IVF5
# T7 sequence (Q8IVF5 885-986, limits assumed, looked up): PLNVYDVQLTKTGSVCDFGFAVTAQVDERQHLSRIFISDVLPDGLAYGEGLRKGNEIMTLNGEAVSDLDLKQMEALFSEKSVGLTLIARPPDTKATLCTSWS
# T8: LIN7A, O14910
# T8 sequence (O14910 103-200, limits assumed, looked up): T6 sequence (Q9HAP6 88-185, limits assumed, looked up) with A2S, I20V, V35I, D42E, Q65H, Q77K, G78D, R89K
# T9: TX1BP3, O14907
# T9 sequence (O14907 10-122, limits assumed, looked up): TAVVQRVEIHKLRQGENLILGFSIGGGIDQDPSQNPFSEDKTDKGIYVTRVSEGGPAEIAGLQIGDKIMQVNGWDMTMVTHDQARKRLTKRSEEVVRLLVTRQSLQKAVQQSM
# T10: RADIL, Q96JH8
# T10 sequence (Q96JH8 971-1071, limits assumed, looked up): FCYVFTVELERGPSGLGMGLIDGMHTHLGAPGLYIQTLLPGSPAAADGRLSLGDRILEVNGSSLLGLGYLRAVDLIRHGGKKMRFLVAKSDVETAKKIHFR
# T11: DLG3_1, Q92796
# T11 sequence (Q92796 125-227, limits assumed, looked up): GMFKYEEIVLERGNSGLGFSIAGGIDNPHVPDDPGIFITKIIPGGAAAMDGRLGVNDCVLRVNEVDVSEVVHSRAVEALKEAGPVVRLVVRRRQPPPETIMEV
# T12: PDZRN3_1, Q9UPQ7
# T12 sequence (Q9UPQ7 244-349, limits assumed, looked up): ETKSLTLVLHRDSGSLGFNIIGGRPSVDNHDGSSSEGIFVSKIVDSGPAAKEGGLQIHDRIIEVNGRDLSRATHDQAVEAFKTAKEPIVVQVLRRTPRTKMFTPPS
# Experiments:
# Assay in all cases: holdup assay
# Set-up in all cases: key: below the threshold = too weak to quantify, mostly under pKd 3.1 to 4
# [1] = biological target: TJP1_2, Q07157
# [2] = biological target: T1, SNTA1, Q13424
# [3] = biological target: T2, SNTG1, Q9NSN8
# [4] = biological target: T3, DLG3_2, Q92796
# [5] = biological target: FRMPD4, Q14CM0
# [6] = biological target: T4, APBA2_1, Q99767
# [7] = biological target: T5, SNTG2, Q9NY99
# [8] = biological target: GRID2IP_2, A4D2P6
# [9] = biological target: GORASP2, Q9H8Y8
# [10] = biological target: T6, LIN7B, Q9HAP6
# [11] = biological target: Inadl_1, Q8NI35
# [12] = biological target: PICK1, Q9NRD5
# [13] = biological target: T7, TIAM2, Q8IVF5
# [14] = biological target: MAGI1_1, Q96QZ7
# [15] = biological target: T8, LIN7A, O14910
# [16] = biological target: CASK, O14936
# [17] = biological target: ARHGEF12, Q9NZN5-2
# [18] = biological target: NHERF4_2, Q86UT5
# [19] = biological target: MAST2, Q6P0Q8
# [20] = biological target: DLG5_1, Q8TDM6
# [21] = biological target: T9, TX1BP3, O14907
# [22] = biological target: T10, RADIL, Q96JH8
# [23] = biological target: T11, DLG3_1, Q92796
# [24] = biological target: T12, PDZRN3_1, Q9UPQ7
# [25] = plain residues with an end cap or a label only (N-terminal biotin on a linker: ado-ado)
# [26] = plain residues with an end cap or a label only (N-terminal biotin on a linker: ahx)
# Sequence of ARHGEF12, Q9NZN5-2 (Q9NZN5 other isoform, or with tags, fused parts or gaps): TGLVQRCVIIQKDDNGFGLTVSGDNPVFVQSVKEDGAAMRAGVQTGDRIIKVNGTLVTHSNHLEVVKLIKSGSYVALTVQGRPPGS
# Sequence of DLG5_1, Q8TDM6 (Q8TDM6 617-713): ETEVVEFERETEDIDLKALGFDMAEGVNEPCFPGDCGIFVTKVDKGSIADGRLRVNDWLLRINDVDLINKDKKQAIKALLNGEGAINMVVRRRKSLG
# Sequence of GRID2IP_2, A4D2P6 (A4D2P6 272-370): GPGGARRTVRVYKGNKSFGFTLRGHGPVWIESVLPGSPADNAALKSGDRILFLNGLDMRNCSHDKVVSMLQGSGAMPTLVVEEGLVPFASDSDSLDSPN
# Sequence of TJP1_2, Q07157 (Q07157 181-274): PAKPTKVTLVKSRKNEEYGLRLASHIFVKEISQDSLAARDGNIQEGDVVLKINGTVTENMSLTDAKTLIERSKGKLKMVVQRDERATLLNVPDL
# Sequence of PICK1, Q9NRD5 (Q9NRD5 17-115): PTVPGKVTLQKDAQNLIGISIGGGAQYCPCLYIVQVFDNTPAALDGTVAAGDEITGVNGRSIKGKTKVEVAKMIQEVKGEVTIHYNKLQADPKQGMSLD
# Sequence of Inadl_1, Q8NI35 (Q8NI35 113-229): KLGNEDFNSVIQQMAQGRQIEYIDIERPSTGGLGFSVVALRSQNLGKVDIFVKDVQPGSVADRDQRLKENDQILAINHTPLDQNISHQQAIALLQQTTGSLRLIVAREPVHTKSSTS
# Sequence of FRMPD4, Q14CM0 (Q14CM0 67-160): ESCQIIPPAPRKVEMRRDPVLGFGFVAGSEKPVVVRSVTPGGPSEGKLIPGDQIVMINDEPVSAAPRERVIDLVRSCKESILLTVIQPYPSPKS
# Sequence of CASK, O14936 (O14936 487-570): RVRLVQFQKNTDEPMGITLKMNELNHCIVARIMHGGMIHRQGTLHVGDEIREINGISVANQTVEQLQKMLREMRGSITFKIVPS
# Sequence of MAGI1_1, Q96QZ7 (Q96QZ7 1-106): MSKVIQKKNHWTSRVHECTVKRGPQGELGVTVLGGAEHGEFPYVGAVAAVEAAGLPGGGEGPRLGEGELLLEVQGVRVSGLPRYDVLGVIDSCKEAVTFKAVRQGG
# Sequence of MAST2, Q6P0Q8 (Q6P0Q8 1099-1202): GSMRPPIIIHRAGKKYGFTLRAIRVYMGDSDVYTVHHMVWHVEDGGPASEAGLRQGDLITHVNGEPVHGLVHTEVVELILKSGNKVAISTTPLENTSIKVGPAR
# Sequence of NHERF4_2, Q86UT5 (Q86UT5 220-308): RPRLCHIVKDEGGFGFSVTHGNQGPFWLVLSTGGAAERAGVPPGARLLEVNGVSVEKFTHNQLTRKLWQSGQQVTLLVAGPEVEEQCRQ
binder,measurement,setting,value
"RSSGGDDFWF [KCNV1, Q6PIU1]",pKd,[1]; [25],5.12
same,pKd,[2]; [25],below the threshold
same,pKd,[3]; [25],below the threshold
same,pKd,[4]; [25],4.06
same,pKd,[5]; [25],4.67
same,pKd,[6]; [25],below the threshold
same,pKd,[7]; [25],below the threshold
same,pKd,[8]; [25],below the threshold
same,pKd,[9]; [25],4.21
same,pKd,[10]; [25],3.7
same,pKd,[11]; [25],below the threshold
same,pKd,[12]; [25],4.01
same,pKd,[13]; [25],4.47
same,pKd,[14]; [25],below the threshold
same,pKd,[15]; [25],below the threshold
same,pKd,[16]; [25],below the threshold
same,pKd,[17]; [25],below the threshold
same,pKd,[18]; [25],below the threshold
same,pKd,[19]; [25],4.61
same,pKd,[20]; [25],below the threshold
same,pKd,[21]; [25],below the threshold
same,pKd,[22]; [25],below the threshold
same,pKd,[23]; [25],below the threshold
same,pKd,[24]; [25],below the threshold
"TESNLQTSSC [CGN, Q9P2M7]",pKd,[1]; [26],below the threshold
same,pKd,[2]; [26],below the threshold
same,pKd,[3]; [26],below the threshold
same,pKd,[4]; [26],below the threshold
same,pKd,[5]; [26],below the threshold
same,pKd,[6]; [26],below the threshold
same,pKd,[7]; [26],below the threshold
same,pKd,[8]; [26],3.8
same,pKd,[9]; [26],below the threshold
same,pKd,[10]; [26],below the threshold
same,pKd,[11]; [26],below the threshold
same,pKd,[12]; [26],below the threshold
same,pKd,[13]; [26],below the threshold
same,pKd,[14]; [26],below the threshold
same,pKd,[15]; [26],below the threshold
same,pKd,[16]; [26],below the threshold
same,pKd,[17]; [26],3.71
same,pKd,[18]; [26],below the threshold
same,pKd,[19]; [26],below the threshold
same,pKd,[20]; [26],below the threshold
same,pKd,[21]; [26],below the threshold
same,pKd,[22]; [26],below the threshold
same,pKd,[23]; [26],below the threshold
same,pKd,[24]; [26],below the threshold
"APSRKLNTEI [TIAM1, Q13009]",pKd,[1]; [26],below the threshold
same,pKd,[2]; [26],below the threshold
same,pKd,[3]; [26],below the threshold
same,pKd,[4]; [26],3.72
same,pKd,[5]; [26],below the threshold
same,pKd,[6]; [26],below the threshold
same,pKd,[7]; [26],below the threshold
same,pKd,[8]; [26],below the threshold
same,pKd,[9]; [26],below the threshold
same,pKd,[10]; [26],below the threshold
same,pKd,[11]; [26],below the threshold
same,pKd,[12]; [26],below the threshold
same,pKd,[13]; [26],below the threshold
same,pKd,[14]; [26],below the threshold
same,pKd,[15]; [26],below the threshold
same,pKd,[16]; [26],below the threshold
same,pKd,[17]; [26],3.76
same,pKd,[18]; [26],below the threshold
same,pKd,[19]; [26],below the threshold
same,pKd,[20]; [26],below the threshold
same,pKd,[21]; [26],below the threshold
same,pKd,[22]; [26],below the threshold
same,pKd,[23]; [26],below the threshold
same,pKd,[24]; [26],below the threshold
